Consider seven molecules from patent US20150152192A1 (SAMSUNG ELECTRONICS, published 2015).

Substitutions are numbered along the chain they refer to.

Assay in all cases: ELISA, scFv coated, 250 ng FLAG-tagged Ang2 mutant, anti-FLAG-HRP
Experiment [1] addresses T1, Ang2 with Y460 mutated with alanine, tagged with FLAG (human, UniProt O15123 19-496, limits assumed).
T1 sequence: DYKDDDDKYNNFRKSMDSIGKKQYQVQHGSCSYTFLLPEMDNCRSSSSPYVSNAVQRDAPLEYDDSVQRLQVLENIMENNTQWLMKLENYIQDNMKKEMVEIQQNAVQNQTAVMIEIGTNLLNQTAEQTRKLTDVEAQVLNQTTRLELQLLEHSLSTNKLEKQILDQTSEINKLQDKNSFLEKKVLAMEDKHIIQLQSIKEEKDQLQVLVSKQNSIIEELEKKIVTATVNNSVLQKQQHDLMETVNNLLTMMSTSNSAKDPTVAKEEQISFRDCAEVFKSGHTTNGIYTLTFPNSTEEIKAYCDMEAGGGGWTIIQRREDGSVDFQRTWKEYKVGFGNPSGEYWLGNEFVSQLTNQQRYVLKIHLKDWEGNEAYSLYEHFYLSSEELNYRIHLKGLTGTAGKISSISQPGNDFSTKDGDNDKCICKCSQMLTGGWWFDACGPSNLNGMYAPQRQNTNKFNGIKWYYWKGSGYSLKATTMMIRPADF
As for the experimental part: (§1) A 96-well MaxiSorp™ flat-bottom plate (Nunc) was coated with 50 μl of the anti-Ang2 scFv selected above. After that, the plate was washed five times with 0.05% (v/v) Tween-20-containing PBS and then blocked with 1% (v/v) BSA-containing PBS at a room temperature for 2 hours. […] Thereafter, the plate was washed five times with 0.05% Tween-20-containing PBS and then, an HRP-conjugated anti-FLAG antibody (SIGMA) diluted in 1% (v/v) BSA-containing PBS at 1:5,000 ratio (v/v) was added in the amount of 50 μl to each well to react at a room temperature for 1 hour, followed by washing five times with 0.1% (v/v) Tween-20-containing PBS.
(§2) Finally, 100 μl of TMB substrate (cell signal) was added to each well of the plate to induce color development and then, the reaction was ceased by the addition of 50 μl of 5N H₂SO₄ solution and OD450 values were measured on a plate reader (Molecular Devices).

Experiment [2] deals with T2, Ang2 with P452 mutated with alanine, tagged with FLAG (human, UniProt O15123 19-496, limits assumed).
T2 sequence: T1 sequence with P442A, A450Y
As for the experimental part:
as §1, §2

Experiment [3] has as its target T3, Ang2 with F469 mutated with alanine, tagged with FLAG (human, UniProt O15123 19-496, limits assumed).
T3 sequence: T1 sequence with A450Y, F459A
As for the experimental part:
as §1, §2

Experiment [4] deals with T4, Ang2 with K468 mutated with alanine, tagged with FLAG (human, UniProt O15123 19-496, limits assumed).
T4 sequence: T1 sequence with A450Y, K458A
As for the experimental part: as §1, §2

B1: SAIT-ANG-2-AB-2-E6 (scFv form) (scFv, V domains shown)
VH: EVQLLESGGGLVQTGGSLRLSCAASGFTFSDYAMSWVRQAPGKGLEWVSAIYPDSGNKYYADSVKGRFTISRDNSKNTLYLQMNSLRAEDTAVYYCARHSSDPKVKSGYYDDGMDVWGQGTLVAVSS
VL: QSVLTQPPSASGTPGQRVTISCSGSSSNIGNNAVNWYQQLPGTAPKLLIYADSNRPSGVPDRFSGSKSGTSASLAISGLRSEDEADYYCGSWDYSLSGYVFGGGTKLTVLG
notes: scFv from a phage display library, partly purified from E. coli periplasm on Ni-NTA and detected with anti-HA
For B1, the “Relative binding (%) with Mutant Ang2 compared to the binding with native Ang2” value (shortened to “Relative binding (%) with Mutant Ang2”) in experiment [1] came out at 40%; in experiment [2], 24%; in experiment [3], 112%; in experiment [4] it was 94%.

B2: SAIT-ANG-2-AB-4-C11 (scFv form) (scFv, V domains shown)
VH: EVQLLESGGGLVQPGGSLRLSCAASGFTFSDYAMSWVRQAPGKGLEWVSSIYPDDGNTYYADSVKGRFTISRDNSKNTLYLQMNSLRAEDTAVYYCARHTSHHTSIDGYYYYGMDGWGQGTLVTVSS
VL: B1 VL with S23T, A33D, N35S, A51S, N54K
notes: scFv from a phage display library
With B2, the “Relative binding (%) with Mutant Ang2” value in experiment [1] turned out to be 74.3%; in experiment [2], 70%; in experiment [3], 102%; in experiment [4], 94.8%.

B3: SAIT-ANG-2-AB-3-D3 (scFv form) (scFv, V domains shown)
VH: EVQLLESGGGLVQPGGSLRLSCAASGFTFSDYDMSWVRQAPGKGLEWVSGISSDDGNTYYADSVKGRFTISRDNSKNTLYLQMNSLRAEDTAVYYCARPTIDKYTLRGYYSYGMDVWGQGTLVTVSS
VL: B1 VL with S23T, N31S, A33Y, N35S, A51S, S53N, N54K, S91T, Y94D, S97N
notes: as for B2
On to B3, for which the “Relative binding (%) with Mutant Ang2” value in experiment [1] came out at 95.1%; in experiment [2], 97.3%; in experiment [3], 96.4%; in experiment [4], 95.9%.

B4: SAIT-ANG-2-AB-4-F11 (scFv form) (scFv, V domains shown)
VH: EVQLLESGGGLVQTGGSLRLSCAASGFTFSDYAMSWVRQAPGKGLEWVSSIYPDDGNTYYADSVKGRFTISRDNSKNTLYLQMNSLRAEDTAVYYCAKHPVRLNLHPMYYYYGMDVWGQGTLVTVSS
VL: B1 VL with S23T, N35S, A51S, N54Q, G90A, S91T, G98A
notes: as for B2
In the case of B4, the “Relative binding (%) with Mutant Ang2” value in experiment [1] came to 96.1%; in experiment [2], 91.6%; in experiment [3], 105%; in experiment [4], 102%.

B5: SAIT-ANG-2-AB-4-F5 (scFv form) (scFv, V domains shown)
VH: EVQLLESGGGLVQPGGSLRLSCAASGFTFSDYDMSWVRQAPGKGLEWVSSISHGDSNKYYADSVKGRFTISRDNSKNTLYLQMNSLRAEDTAVYYCAKSSGIQESPPTYYYYGMDVWGQGTLVTVSS
VL: B1 VL with N31S
notes: as for B2
In the case of B5, the “Relative binding (%) with Mutant Ang2” value came out at 21.8% in experiment [1], 15% in experiment [2], 259% in experiment [3] and 87.4% in experiment [4].

B6: SAIT-ANG-2-AB-7-C9 (scFv form) (scFv, V domains shown)
VH: EVQLLESGGGLVQPGGSLRLSCAASGFTFSNYAMSWVRQAPGKGLEWVSAISSGGGNIYYADSVKGRFTISRDNSKNTLYLQMNSLRAEDTAVYYCAKSGIQPSPPSMSSAYAMDVWGQGTLVTVSS
VL: B1 VL with A33D, N35Y, D52N, N54H, S91T
notes: as for B2
For the molecule B6, the “Relative binding (%) with Mutant Ang2” value in experiment [1] stood at 78.1%; in experiment [2], 85%; in experiment [3], 89.4%; in experiment [4], 97.3%.

B7: SAIT-ANG-2-AB-8-A5 (scFv form) (scFv, V domains shown)
VH: EVQLLESGGGLVQPGGSLRLSCAASGFTFSDYYMSWVRQAPGKGLEWVSGIYPSGGSTYYADSVKGRFTISRDNSKNTLYLQMNSLRAEDTAVYYCARDPSTLTYAGFDYWGQGTLVTVSS
VL: B1 VL with A33Y, N35T, N54H, G90A, S91T
notes: as for B2
Take B7: the “Relative binding (%) with Mutant Ang2” value in experiment [1] came to 91.6%; in experiment [2] it was 86.5%; in experiment [3], 102%; in experiment [4], 101%.
